# From article PMC5473807, “Distribution and kinetics of the Kv1.3-blocking peptide HsTX1[R14A] in experimental rats” (Scientific Reports, 2017)
# Like-named read-outs stand apart in the source and are kept apart here.
# Test: In vivo biodistribution by organ and tissue extraction
# Parameters: species or system male Wistar rats
# Details: male, Wistar, total radioactivity, rat; for SUV at 48 h / tissue uptake dose at 48 h: 2880 min p.i.; for SUV at 1 h / tissue uptake dose at 1 h: 60 min p.i.; for tissue uptake dose at 5 min / SUV at 5 min: 5 min p.i.; for dose excreted at 24 h: kidney and urine, read-out: renal elimination
# Description: The present study includes data obtained from a total of 50 animals. Four animals (body weight 227 ± 10 g) for each time point were injected intravenously into a tail vein or subcutaneously with approximately 0.3 MBq ([…]) [^64Cu]Cu-NOTA-HsTX1[R14A] conjugate in 0.5 mL electrolyte solution E-153 (Serumwerk Bernburg, Germany). Animals were euthanised at 5, 60, 240, 1440 and 2880 min post-injection. Blood and the major organs were collected, weighed, and counted in a cross-calibrated γ-counter (Isomed 1000, Isomed GmbH, Dresden) and Wallac WIZARD Automatic Gamma Counter (PerkinElmer, Germany). The radioactivity of the tissue samples was decay-corrected and calibrated by comparing the counts in tissue with the counts in aliquots of the injected radiotracer that had been measured in the γ-counter at the same time. The activity in the selected organs was expressed as percent-injected dose per organ (% ID) and the activity concentration in tissues and organs as standardised uptake value (SUV). Values are quoted as mean ± standard error of mean (SEM) for each group of four animals.
# [1] = femur, sc, 0.3 MBq, s.c., mean ± SD, n=4, read-out: Femur SUV
# [2] = femur, sc, 0.3 MBq, s.c., mean ± SD, n=4, read-out: Femur activity amount
# [3] = heart, iv, 0.3 MBq, i.v., mean ± SD, n=4, read-out: Heart activity amount
# [4] = heart, iv, i.v., mean ± SD, n=4, read-out: Heart SUV
# [5] = heart, sc, 0.3 MBq, s.c., mean ± SD, n=4, read-out: Heart activity amount
# [6] = heart, sc, s.c., mean ± SD, n=4, read-out: Heart SUV
# [7] = intestine, iv, 0.3 MBq, i.v., mean ± SD, n=4, read-out: Intestine activity amount
# [8] = intestine, sc, 0.3 MBq, s.c., mean ± SD, n=4, read-out: Intestine activity amount
# [9] = kidneys, iv, 0.3 MBq, i.v., mean ± SD, n=4, read-out: Kidneys SUV
# [10] = kidneys, iv, 0.3 MBq, i.v., mean ± SD, n=4, read-out: Kidneys activity amount
# [11] = kidneys, sc, 0.3 MBq, s.c., mean ± SD, n=4, read-out: Kidneys SUV
# [12] = kidneys, sc, 0.3 MBq, s.c., mean ± SD, n=4, read-out: Kidneys activity amount
# [13] = liver, iv, 0.3 MBq, i.v., mean ± SD, n=4, read-out: Liver SUV
# [14] = liver, iv, 0.3 MBq, i.v., mean ± SD, n=4, read-out: Liver activity amount
# [15] = liver, sc, 0.3 MBq, s.c., mean ± SD, n=4, read-out: Liver SUV
compound,measurement,setting,value
"CSCC[C@@H]1NC(=O)[C@@H]2CSSC[C@H](NC(=O)[C@H](CO)NC(=O)[C@H](C)NC(=O)COCCOCCNC(=O)CN3CCN(CC(=O)O)CCN(CC(=O)O)CC3)C(=O)N[C@@H](CCCNC(=N)N)C(=O)N[C@@H]([C@@H](C)O)C(=O)N3CCC[C@H]3C(=O)N[C@@H](CCCCN)C(=O)N[C@@H](CC(=O)O)C(=O)N[C@H]3CSSC[C@H](NC(=O)[C@H](CCCCN)NC(=O)[C@H](CCCNC(=N)N)NC(=O)[C@H](CC(N)=O)NC1=O)C(=O)N[C@@H](CCCCN)C(=O)N[C@H]1CSSC[C@H](NC(=O)[C@@H]4CCCN4C(=O)[C@H](CC(=O)O)NC(=O)[C@H](C)NC3=O)C(=O)N[C@@H](C)C(=O)N[C@@H](CCCCN)C(=O)N[C@@H](CCC(=O)O)C(=O)N[C@@H]([C@@H](C)O)C(=O)NCC(=O)N[C@@H](CSSC[C@@H](C(N)=O)NC(=O)[C@H](CCCNC(=N)N)NC(=O)[C@H](CC(N)=O)NC1=O)C(=O)N1CCC[C@H]1C(=O)N[C@@H](Cc1ccc(O)cc1)C(=O)NCC(=O)N[C@@H](CCCCN)C(=O)N2 [[^64Cu]Cu-NOTA-HsTX1[R14A], metal not drawn]",SUV at 48 h,"femur, iv, 0.3 MBq, i.v., mean ± SD, n=4, read-out: Femur SUV",0.39 ± 0.02 SUV
same,tissue uptake dose at 48 h,"femur, iv, 0.3 MBq, i.v., mean ± SD, n=4, read-out: Femur activity amount",0.23 ± 0.01 %ID
same,SUV at 1 h,[1],1.25 ± 0.07 SUV
same,tissue uptake dose at 1 h,[2],0.82 ± 0.04 %ID
same,SUV at 4 h,"femur, sc, 0.3 MBq, s.c., 240 min p.i., mean ± SD, n=4, read-out: Femur SUV",0.92 ± 0.08 SUV
same,tissue uptake dose at 4 h,"femur, sc, 0.3 MBq, s.c., 240 min p.i., mean ± SD, n=4, read-out: Femur activity amount",0.64 ± 0.02 %ID
same,SUV at 24 h,"femur, sc, 0.3 MBq, s.c., 1440 min p.i., mean ± SD, n=4, read-out: Femur SUV",0.47 ± 0.02 SUV
same,tissue uptake dose at 24 h,"femur, sc, 0.3 MBq, s.c., 1440 min p.i., mean ± SD, n=4, read-out: Femur activity amount",0.34 ± 0.01 %ID
same,SUV at 48 h,[1],0.34 ± 0.02 SUV
same,tissue uptake dose at 48 h,[2],0.19 ± 0.02 %ID
same,tissue uptake dose at 5 min,[3],0.33 ± 0.04 %ID
same,tissue uptake dose at 1 h,"heart, iv, 0.3 MBq, i.v., mean ± SD, n=8, read-out: Heart activity amount",0.21 ± 0.06 %ID
same,tissue uptake dose at 4 h,"heart, iv, 0.3 MBq, i.v., 240 min p.i., mean ± SD, n=4, read-out: Heart activity amount",0.19 ± 0.03 %ID
same,tissue uptake dose at 24 h,"heart, iv, 0.3 MBq, i.v., 1440 min p.i., mean ± SD, n=8, read-out: Heart activity amount",0.23 ± 0.02 %ID
same,tissue uptake dose at 48 h,[3],0.27 ± 0.04 %ID
same,SUV at 5 min,[4],1.04 ± 0.14 SUV
same,SUV at 1 h,"heart, iv, i.v., mean ± SD, n=8, read-out: Heart SUV",0.53 ± 0.08 SUV
same,SUV at 4 h,"heart, iv, i.v., 240 min p.i., mean ± SD, n=4, read-out: Heart SUV",0.4 ± 0.07 SUV
same,SUV at 24 h,"heart, iv, i.v., 1440 min p.i., mean ± SD, n=8, read-out: Heart SUV",0.62 ± 0.07 SUV
same,SUV at 48 h,[4],0.64 ± 0.06 SUV
same,tissue uptake dose at 1 h,[5],0.32 ± 0.02 %ID
same,tissue uptake dose at 4 h,"heart, sc, 0.3 MBq, s.c., 240 min p.i., mean ± SD, n=4, read-out: Heart activity amount",0.18 ± 0.03 %ID
same,tissue uptake dose at 24 h,"heart, sc, 0.3 MBq, s.c., 1440 min p.i., mean ± SD, n=4, read-out: Heart activity amount",0.23 ± 0.01 %ID
same,tissue uptake dose at 48 h,[5],0.22 ± 0.01 %ID
same,SUV at 1 h,[6],0.7 ± 0.03 SUV
same,SUV at 4 h,"heart, sc, s.c., 240 min p.i., mean ± SD, n=4, read-out: Heart SUV",0.41 ± 0.06 SUV
same,SUV at 24 h,"heart, sc, s.c., 1440 min p.i., mean ± SD, n=4, read-out: Heart SUV",0.53 ± 0.02 SUV
same,SUV at 48 h,[6],0.57 ± 0.04 SUV
same,tissue uptake dose at 5 min,[7],3.59 ± 2.4 %ID
same,tissue uptake dose at 1 h,"intestine, iv, 0.3 MBq, i.v., mean ± SD, n=8, read-out: Intestine activity amount",5.3 ± 2.31 %ID
same,tissue uptake dose at 4 h,"intestine, iv, 0.3 MBq, i.v., 240 min p.i., mean ± SD, n=4, read-out: Intestine activity amount",4.61 ± 1.84 %ID
same,tissue uptake dose at 24 h,"intestine, iv, 0.3 MBq, i.v., 1440 min p.i., mean ± SD, n=8, read-out: Intestine activity amount",16.5 ± 2.32 %ID
same,tissue uptake dose at 48 h,[7],8.27 ± 1.01 %ID
same,tissue uptake dose at 1 h,[8],7.85 ± 3.82 %ID
same,tissue uptake dose at 4 h,"intestine, sc, 0.3 MBq, s.c., 240 min p.i., mean ± SD, n=4, read-out: Intestine activity amount",4.65 ± 1.73 %ID
same,tissue uptake dose at 24 h,"intestine, sc, 0.3 MBq, s.c., 1440 min p.i., mean ± SD, n=4, read-out: Intestine activity amount",19.3 ± 1.35 %ID
same,tissue uptake dose at 48 h,[8],8.16 ± 1.02 %ID
same,dose excreted at 24 h,"iv, 0.3 MBq, i.v., one day after injection",48 ± 3%
same,dose excreted at 24 h,"sc, 0.3 MBq, s.c., one day after injection",51 ± 2%
same,SUV at 5 min,[9],35.1 ± 6.82 SUV
same,tissue uptake dose at 5 min,[10],23.9 ± 3.93 %ID
same,SUV at 1 h,"kidneys, iv, 0.3 MBq, i.v., mean ± SD, n=8, read-out: Kidneys SUV",78.4 ± 13.6 SUV
same,tissue uptake dose at 1 h,"kidneys, iv, 0.3 MBq, i.v., mean ± SD, n=8, read-out: Kidneys activity amount",61.6 ± 4.21 %ID
same,SUV at 4 h,"kidneys, iv, 0.3 MBq, i.v., 240 min p.i., mean ± SD, n=4, read-out: Kidneys SUV",68.4 ± 4.28 SUV
same,tissue uptake dose at 4 h,"kidneys, iv, 0.3 MBq, i.v., 240 min p.i., mean ± SD, n=4, read-out: Kidneys activity amount",63.1 ± 0.97 %ID
same,SUV at 24 h,"kidneys, iv, 0.3 MBq, i.v., 1440 min p.i., mean ± SD, n=8, read-out: Kidneys SUV",18 ± 5.32 SUV
same,tissue uptake dose at 24 h,"kidneys, iv, 0.3 MBq, i.v., 1440 min p.i., mean ± SD, n=8, read-out: Kidneys activity amount",14.2 ± 2.04 %ID
same,SUV at 48 h,[9],6.37 ± 0.59 SUV
same,tissue uptake dose at 48 h,[10],6.19 ± 0.49 %ID
same,SUV at 1 h,[11],58.1 ± 5.55 SUV
same,tissue uptake dose at 1 h,[12],53.3 ± 4.9 %ID
same,SUV at 4 h,"kidneys, sc, 0.3 MBq, s.c., 240 min p.i., mean ± SD, n=4, read-out: Kidneys SUV",70.2 ± 4.14 SUV
same,tissue uptake dose at 4 h,"kidneys, sc, 0.3 MBq, s.c., 240 min p.i., mean ± SD, n=4, read-out: Kidneys activity amount",62.5 ± 2.36 %ID
same,SUV at 24 h,"kidneys, sc, 0.3 MBq, s.c., 1440 min p.i., mean ± SD, n=4, read-out: Kidneys SUV",14.4 ± 1.32 SUV
same,tissue uptake dose at 24 h,"kidneys, sc, 0.3 MBq, s.c., 1440 min p.i., mean ± SD, n=4, read-out: Kidneys activity amount",13.6 ± 1.1 %ID
same,SUV at 48 h,[11],5.98 ± 1.08 SUV
same,tissue uptake dose at 48 h,[12],4.95 ± 0.49 %ID
same,tissue uptake dose at 4 h,"liver and intestine, iv, 0.3 MBq, i.v., 4 h, read-out: activity in the liver and intestine",12 ± 3 %ID
same,tissue uptake dose at 24 h,"liver and intestine, iv, 0.3 MBq, i.v., one day after injection, read-out: hepatobiliary elimination, maximum",31 ± 3 %ID
same,tissue uptake dose at 4 h,"liver and intestine, sc, 0.3 MBq, s.c., 4 h, read-out: activity in the liver and intestine",11.4 ± 4 %ID
same,tissue uptake dose at 24 h,"liver and intestine, sc, 0.3 MBq, s.c., one day after injection, read-out: hepatobiliary elimination, maximum",30 ± 3 %ID
same,SUV at 5 min,[13],1.02 ± 0.53 SUV
same,tissue uptake dose at 5 min,[14],4.6 ± 2.22 %ID
same,SUV at 1 h,"liver, iv, 0.3 MBq, i.v., mean ± SD, n=8, read-out: Liver SUV",1.24 ± 0.31 SUV
same,tissue uptake dose at 1 h,"liver, iv, 0.3 MBq, i.v., mean ± SD, n=8, read-out: Liver activity amount",5.43 ± 1.44 %ID
same,SUV at 4 h,"liver, iv, 0.3 MBq, i.v., 240 min p.i., mean ± SD, n=4, read-out: Liver SUV",1.78 ± 0.45 SUV
same,tissue uptake dose at 4 h,"liver, iv, 0.3 MBq, i.v., 240 min p.i., mean ± SD, n=4, read-out: Liver activity amount",7.01 ± 1.47 %ID
same,SUV at 24 h,"liver, iv, 0.3 MBq, i.v., 1440 min p.i., mean ± SD, n=8, read-out: Liver SUV",2.93 ± 0.78 SUV
same,tissue uptake dose at 24 h,"liver, iv, 0.3 MBq, i.v., 1440 min p.i., mean ± SD, n=8, read-out: Liver activity amount",14.8 ± 2.42 %ID
same,SUV at 48 h,[13],1.45 ± 0.13 SUV
same,tissue uptake dose at 48 h,[14],8.35 ± 0.95 %ID
same,SUV at 1 h,[15],1.13 ± 0.23 SUV
same,tissue uptake dose at 1 h,"liver, sc, 0.3 MBq, s.c., mean ± SD, n=4, read-out: Liver activity amount",4.44 ± 0.74 %ID
same,SUV at 4 h,"liver, sc, 0.3 MBq, s.c., 240 min p.i., mean ± SD, n=4, read-out: Liver SUV",1.75 ± 0.63 SUV
same,tissue uptake dose at 4 h,"liver, sc, 0.3 MBq, s.c., 240 min p.i., mean ± SD, n=4, read-out: Liver activity amount",6.79 ± 2.27 %ID
same,SUV at 24 h,"liver, sc, 0.3 MBq, s.c., 1440 min p.i., mean ± SD, n=4, read-out: Liver SUV",2.23 ± 0.32 SUV
same,tissue uptake dose at 24 h,"liver, sc, 0.3 MBq, s.c., 1440 min p.i., mean ± SD, n=4, read-out: Liver activity amount",11.1 ± 1.82 %ID
same,SUV at 48 h,[15],1.4 ± 0.08 SUV
